Where “and” joins values, the source holds several entries; their conditions need not be identical. Identical values can stand only once.

Here are results for one molecule from patent US20220185894A1 (F STAR THERAPEUTICS, published 2022).

The target of experiment [1] is T1, recombinant Fc-tagged human LAG-3 (R&D Systems, 2319-L3-050) (human, UniProt P18627 23-450).
T1 construct: Bought protein; also called LAG-3 Fc; human LAG-3-Fc; not shown: Fc tag of the bought fusion protein
T1 sequence: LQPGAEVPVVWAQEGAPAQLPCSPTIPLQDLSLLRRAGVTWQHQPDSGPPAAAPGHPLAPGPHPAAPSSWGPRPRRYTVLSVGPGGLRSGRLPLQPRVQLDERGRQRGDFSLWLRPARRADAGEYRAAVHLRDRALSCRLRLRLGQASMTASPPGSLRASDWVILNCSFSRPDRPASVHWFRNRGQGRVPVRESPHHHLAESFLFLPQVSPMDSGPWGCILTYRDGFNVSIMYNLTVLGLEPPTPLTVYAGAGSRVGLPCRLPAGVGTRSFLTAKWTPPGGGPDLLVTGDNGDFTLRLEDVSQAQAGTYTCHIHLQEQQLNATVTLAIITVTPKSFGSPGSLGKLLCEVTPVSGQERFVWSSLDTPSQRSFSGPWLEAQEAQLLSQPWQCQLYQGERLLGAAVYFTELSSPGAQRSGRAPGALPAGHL
The experiment can be described thus: SPR, BIAcore T200; mAb2 captured on Protein L, human LAG-3 Fc injected. Here is the method: Protein L (Thermo, 21189) was immobilized on flow cells 1 and 2 of a Series S CM5 chip (GE Healthcare, BR-1005-30) by amine coupling (GE Healthcare, BR-1000-50) to a surface density of 2000 RU by following the manufacturer's instructions for the BIAcore T200 instrument. […] The association time was 3 min and the dissociation time was 6 min. Running buffer was HBS-P (GE Healthcare, BR-1003-68). Both flow cells were regenerated by injecting 10 mM sodium hydroxide (NaOH) at a flow rate of 100 μl/min for 20 seconds. The data were analysed by double referencing against the blank flow cell.
The binding kinetics were fit with a 1:1 Langmuir model to generate binding association (kₐ) and dissociation (kd) rates. Equilibrium binding constants (KD) were calculated by dividing the dissociation rate by the association rate for each sample. Data analysis was performed with BiaEvaluation software version 3.2.
(In SPR one partner is held on a chip, and binding of the other changes the refractive index at the surface.)

For experiment [2], the target named is T2, cynomolgus LAG-3 expressed on cells (cynomolgus monkey, UniProt P18627 24-525 (human entry)).
T2 construct: also called cLAG-3; cyno LAG-3
T2 chain: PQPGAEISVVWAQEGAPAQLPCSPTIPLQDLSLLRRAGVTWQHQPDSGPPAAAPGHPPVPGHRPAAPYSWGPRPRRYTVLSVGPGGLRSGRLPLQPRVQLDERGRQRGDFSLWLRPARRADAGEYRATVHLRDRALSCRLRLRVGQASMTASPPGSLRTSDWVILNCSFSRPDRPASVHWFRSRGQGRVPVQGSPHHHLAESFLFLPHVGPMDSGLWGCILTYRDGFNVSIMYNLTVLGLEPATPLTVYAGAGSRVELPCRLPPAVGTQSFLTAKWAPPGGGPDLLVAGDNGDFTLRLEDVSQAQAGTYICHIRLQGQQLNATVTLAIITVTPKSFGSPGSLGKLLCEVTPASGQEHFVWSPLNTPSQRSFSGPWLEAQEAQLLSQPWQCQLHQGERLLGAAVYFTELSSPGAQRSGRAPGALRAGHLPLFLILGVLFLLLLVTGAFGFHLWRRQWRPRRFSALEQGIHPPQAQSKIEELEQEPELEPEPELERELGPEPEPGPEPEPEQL
The experiment can be described thus: flow cytometry on HEK cells expressing cynomolgus LAG-3. The procedure: (§1) The affinity of the mAb² (all containing the LALA mutation) for cell expressed human or cynomolgus LAG-3 was determined using flow cytometry. HEK cells expressing human or cynomolgus LAG-3 grown in DMEM (Life Technologies, 61965-026) containing 10% FBS (Life Technologies, 10270-1-6), 100 μg/ml Hygromycin B (Melford Laboratories Ltd, Z2475), 15 μg/ml Blasticidin (Melford Laboratories Ltd, B1105) and 1 μg/ml Doxycyclin (Sigma, D9891) were detached from tissue culture flasks using cell dissociation buffer (Life Technologies, 13151-014) and seeded in V-bottom 96-well plates (Costar, 3897) at 2×10⁵ cells/well. The plates were centrifuged at 1500 rpm for 3 min at 4° C. to pellet the cells. A dilution series of the mAb² (or control mAb) were incubated with the cells in a 100 μl volume for 1 h at 4° C. The plates were washed and secondary antibody (Anti-human Fc-488, Jackson ImmunoResearch, 109-546-098) was diluted 1:1000 in PBS and 100 μl was added to the cells for 30 min at 4° C. (plates were kept in the dark). The plates were washed and then cells were resuspended in 100 μl PBS containing 1 μg/ml DAPI (Biotium, 40043). The plates were read using Canto II flow cytometer (BD Bioscience). Dead cells were excluded and the fluorescence in the FITC channel (488 nm/530/30) was measured. The data was fit using log (agonist) vs response in GraphPad Prism Software. The plates were read on a BD FACSCanto II cytometer (BD Biosciences) and the data analysed using FlowJo.
A general note: A flow cytometer gives signals particle by particle.

The target of experiment [3] is T3, human PD-L1 expressed on cells (human, UniProt Q9NZQ7 19-290).
T3 construct: also called hPD-L1; human PD-L1 HEK
The experiment can be described thus: flow cytometry on HEK cells expressing human PD-L1. The procedure: as §1, with “HEK cells” for “The affinity of the mAb² (all containing the LALA mutation) for cell expressed human or cynomolgus LAG-3 was determined using flow cytometry. HEK cells”, “or cynomolgus PD-L1 grown in” for “or cynomolgus LAG-3 grown in”, “control mAb) was incubated with” for “control mAb) were incubated with”, “were washed then cells” for “were washed and then cells”

T3 sequence (Q9NZQ7 19-290 limits assumed): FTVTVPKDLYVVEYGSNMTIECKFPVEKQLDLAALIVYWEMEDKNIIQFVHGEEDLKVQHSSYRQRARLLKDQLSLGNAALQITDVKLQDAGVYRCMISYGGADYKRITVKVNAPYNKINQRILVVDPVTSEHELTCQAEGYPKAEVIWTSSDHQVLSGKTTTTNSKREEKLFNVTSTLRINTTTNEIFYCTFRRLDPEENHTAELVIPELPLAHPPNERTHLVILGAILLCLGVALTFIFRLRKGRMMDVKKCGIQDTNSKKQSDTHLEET

B1: anti-human LAG-3/PD-L1 mAb2 FS18-7-9/84G09 with LALA mutation (bispecific antibody, human IgG1, kappa, L234A L235A)
heavy: EVQLVESGGGLVQPGRSLRLSCAASGFTFDDYAMHWVRQTPGKGLEWVSGISWKSNIIGYADSVKGRFTISRDNAKNSLYLQMNSLRAEDTALYYCARDITGSGSYGWFDPWGQGTLVTVSSASTKGPSVFPLAPSSKSTSGGTAALGCLVKDYFPEPVTVSWNSGALTSGVHTFPAVLQSSGLYSLSSVVTVPSSSLGTQTYICNVNHKPSNTKVDKKVEPKSCDKTHTCPPCPAPEAAGGPSVFLFPPKPKDTLMISRTPEVTCVVVDVSHEDPEVKFNWYVDGVEVHNAKTKPREEQYNSTYRVVSVLTVLHQDWLNGKEYKCKVSNKALPAPIEKTISKAKGQPREPQVYTLPPSWDEPWGEDVSLTCLVKGFYPSDIAVEWESNGQPENNYKTTPPVLDSDGSFFLYSKLTVPYDRWVWPDEFSCSVMHEALHNHYTQKSLSLSPG
light: DIQMTQSPSSLSASVGDRVTITCRASQSISSYLNWYQQKPGKAPKPLIYVASSLQSGVPSSFSGSGSGTDFTLTISSLQPEDFATYYCQQSYSNPITFGQGTRLEIKRTVAAPSVFIFPPSDEQLKSGTASVVCLLNNFYPREAKVQWKVDNALQSGNSQESVTEQDSKDSTYSLSSTLTLSKADYEKHKVYACEVTHQGLSSPVTKSFNRGEC
notes: also called FS18-7-09/84G09LALA; FS18-7-9/84G09 LALA
In the case of B1, in experiment [1], the Kd – broadly, the concentration at which binding is half-saturated – was 0.056 nM; the koff (usually the rate constant with which the complex falls apart) is 0.00035 s⁻¹; the kon (usually the second-order rate constant of association) was determined as 6.3e+06 M⁻¹ s⁻¹. Moreover, in experiment [2], the response was half-maximal at 29.9 nM (EC50) and the “fold better binding (EC50) than control antibody 25F7” value was no less than 2 fold. In addition, in experiment [3], the EC50 – broadly, the concentration needed to bring the measured effect to its halfway point – is 3.19 nM and 3.51 nM.
